# Results reported in paper PMC11614108, “Structures of Trichomonas vaginalis macrophage migratory inhibitory factor” (Acta Crystallographica Section F: Structural Biology …, 2024).
# Assays:
# [1] = molecular target: T1, His-TvMIF (T. vaginalis macrophage migration inhibitory factor) (Trichomonas vaginalis, UniProt A2DXT4); test: X-ray crystal structure, co-crystallization, […] A; format: binding; conditions: 5 mM sodium pyruvate, pH 7.0 protein buffer, reservoir pH 8.5, 291 K; non-canonical site at Asp68, not the tautomerase site (blocked by N-terminal tag); possibly a crystallization artifact
# T1 construct: gene TVAG_219770; ~15 kDa monomer; trimer in crystal (8ur2: dimer of trimers)
# [2] = molecular target: N-terminally hexahistidine-tagged Trichomonas vaginalis macrophage migration inhibitory factor (Trichomonas vaginalis ATCC PRA-98/G3); test: crystal structure; His-TvMIF crystallized at 291 K by sitting-drop vapor diffusion; apo P4(1)2(1)2 form (PDB 8uz4) and I4(1)22 form from an attempt at co-crystallization with 5 mM sodium 4-hydroxyphenylpyruvate (PDB 8ur4); three monomers per asymmetric unit
# [3] = molecular target: N-terminally hexahistidine-tagged Trichomonas vaginalis macrophage migration inhibitory factor (Trichomonas vaginalis ATCC PRA-98/G3); test: crystal structure; His-TvMIF co-crystallized with 5 mM sodium pyruvate, Morpheus B12, 291 K, space group I4(1) (PDB 8ur2); six monomers
compound,measurement,setting,value
CC(=O)C(=O)O [pyruvate],"X-ray crystal structure, co-crystallization, 1.90 A",[1],The Fo − Fc omit electron-density maps of PDB entry 8ur2 can be modeled with pyruvate
N-terminally hexahistidine-tagged Trichomonas vaginalis macrophage migration inhibitory factor (natural protein),stoichiometry N,[2],3
same,stoichiometry N,[3],6
